Changes are numbered by the printed parent chain. In names and notes the source's numbering stands. Like-named read-outs stand apart in the source and are kept apart here. Values belong to the binder of their own block, whether it stands above or below them.
Experiments:
[1] = target: T1, c-MET on human target cells (human, UniProt P08581 25-1390); assay: cell-based or functional assay
[2] = target: T1, c-MET on human target cells; assay: cell-based or functional assay; remark: listed apart in the source
[3] = target: T1, c-MET on human target cells; assay: cell-based or functional assay; remark: listed apart in the source
[4] = target: T1, c-MET on human target cells; assay: cell-based or functional assay; remark: listed apart in the source
[5] = target: T1, c-MET on human target cells; assay: cell-based or functional assay; remark: listed apart in the source
[6] = target: T2, AF647 labeled c-met protein (UniProt P08581 25-932, limits assumed, labeled with AlexaFluor 647 (AF647)); assay: flow cytometry, EC50 relative to parental Affy7 CAR-T cells (Round 2)
T2 construct: Soluble labeled c-met protein titrated on CAR-T cells
T2 sequence (P08581 25-932 limits assumed): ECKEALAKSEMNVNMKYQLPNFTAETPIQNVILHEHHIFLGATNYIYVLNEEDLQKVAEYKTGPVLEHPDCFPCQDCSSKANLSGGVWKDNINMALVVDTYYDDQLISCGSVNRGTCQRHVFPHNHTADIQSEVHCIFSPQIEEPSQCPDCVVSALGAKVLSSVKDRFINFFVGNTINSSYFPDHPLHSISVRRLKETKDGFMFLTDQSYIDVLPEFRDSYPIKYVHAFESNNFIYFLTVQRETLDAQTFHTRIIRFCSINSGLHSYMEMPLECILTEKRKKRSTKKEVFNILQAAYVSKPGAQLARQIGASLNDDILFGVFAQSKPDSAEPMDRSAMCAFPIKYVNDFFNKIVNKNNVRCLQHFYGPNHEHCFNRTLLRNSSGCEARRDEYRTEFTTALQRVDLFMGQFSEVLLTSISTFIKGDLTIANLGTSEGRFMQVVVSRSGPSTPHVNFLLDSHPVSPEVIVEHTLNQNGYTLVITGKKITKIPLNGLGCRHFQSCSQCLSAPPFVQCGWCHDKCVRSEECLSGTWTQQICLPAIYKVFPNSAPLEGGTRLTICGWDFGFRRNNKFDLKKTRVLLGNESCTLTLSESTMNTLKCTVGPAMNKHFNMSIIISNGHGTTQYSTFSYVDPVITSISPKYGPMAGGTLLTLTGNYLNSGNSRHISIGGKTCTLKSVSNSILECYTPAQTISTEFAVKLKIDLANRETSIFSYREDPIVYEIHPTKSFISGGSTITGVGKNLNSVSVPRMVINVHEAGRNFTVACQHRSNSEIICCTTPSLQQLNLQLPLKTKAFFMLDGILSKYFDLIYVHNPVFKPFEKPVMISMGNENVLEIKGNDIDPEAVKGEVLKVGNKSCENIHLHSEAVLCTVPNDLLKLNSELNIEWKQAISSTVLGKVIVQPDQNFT
Experimental: (§1) Binding of labeled c-MET to CAR-T cells expressing the affinity tuned c-MET scFvs was evaluated by transducing lentivirus anti-c-MET CAR particles into human T cells to form c-MET CAR-T cells incubated with AF647-labeled c-MET. […] Following a 48 hr. incubation at 37° C., the culture media was brought up to […] per well and incubated at 37° C. for 10 days.
(§2) Cells were stained on ice for 30 mins and then washed with PBS. After washing, residually bound protein on CAR T cells were measured on a flow cytometer (Beckman, CytoFLEX®). The resulting binding data was fit using a non-linear regression analysis on GraphPad Prism to calculate half effective dose concentration (EC₅₀) values. The results of this analysis are shown in FIGS. 2-5 and Tables 2-5 below.

[7] = target: T2, AF647 labeled c-met protein; assay: flow cytometry, AF647-labeled c-met protein titrated on CAR-T cells (Round 2)
Experimental: as §1, §2

[8] = target: T1, c-MET on human target cells; assay: cell-based or functional assay; remark: listed apart in the source
[9] = target: T1, c-MET on human target cells; assay: cell-based or functional assay; remark: listed apart in the source
[10] = target: T1, c-MET on human target cells; assay: cell-based or functional assay; remark: listed apart in the source
[11] = target: T1, c-MET on human target cells; assay: cell-based or functional assay; remark: listed apart in the source
[12] = target: T2, AF647 labeled c-met protein; assay: flow cytometry, EC50 relative to parental Affy6 CAR-T cells (Round 2)
Experimental: as §1, §2

[13] = target: T1, c-MET on human target cells; assay: cell-based or functional assay; remark: listed apart in the source
[14] = target: T1, c-MET on human target cells; assay: cell-based or functional assay; remark: listed apart in the source
[15] = target: T1, c-MET on human target cells; assay: cell-based or functional assay; remark: listed apart in the source

T1 sequence (P08581 25-1390): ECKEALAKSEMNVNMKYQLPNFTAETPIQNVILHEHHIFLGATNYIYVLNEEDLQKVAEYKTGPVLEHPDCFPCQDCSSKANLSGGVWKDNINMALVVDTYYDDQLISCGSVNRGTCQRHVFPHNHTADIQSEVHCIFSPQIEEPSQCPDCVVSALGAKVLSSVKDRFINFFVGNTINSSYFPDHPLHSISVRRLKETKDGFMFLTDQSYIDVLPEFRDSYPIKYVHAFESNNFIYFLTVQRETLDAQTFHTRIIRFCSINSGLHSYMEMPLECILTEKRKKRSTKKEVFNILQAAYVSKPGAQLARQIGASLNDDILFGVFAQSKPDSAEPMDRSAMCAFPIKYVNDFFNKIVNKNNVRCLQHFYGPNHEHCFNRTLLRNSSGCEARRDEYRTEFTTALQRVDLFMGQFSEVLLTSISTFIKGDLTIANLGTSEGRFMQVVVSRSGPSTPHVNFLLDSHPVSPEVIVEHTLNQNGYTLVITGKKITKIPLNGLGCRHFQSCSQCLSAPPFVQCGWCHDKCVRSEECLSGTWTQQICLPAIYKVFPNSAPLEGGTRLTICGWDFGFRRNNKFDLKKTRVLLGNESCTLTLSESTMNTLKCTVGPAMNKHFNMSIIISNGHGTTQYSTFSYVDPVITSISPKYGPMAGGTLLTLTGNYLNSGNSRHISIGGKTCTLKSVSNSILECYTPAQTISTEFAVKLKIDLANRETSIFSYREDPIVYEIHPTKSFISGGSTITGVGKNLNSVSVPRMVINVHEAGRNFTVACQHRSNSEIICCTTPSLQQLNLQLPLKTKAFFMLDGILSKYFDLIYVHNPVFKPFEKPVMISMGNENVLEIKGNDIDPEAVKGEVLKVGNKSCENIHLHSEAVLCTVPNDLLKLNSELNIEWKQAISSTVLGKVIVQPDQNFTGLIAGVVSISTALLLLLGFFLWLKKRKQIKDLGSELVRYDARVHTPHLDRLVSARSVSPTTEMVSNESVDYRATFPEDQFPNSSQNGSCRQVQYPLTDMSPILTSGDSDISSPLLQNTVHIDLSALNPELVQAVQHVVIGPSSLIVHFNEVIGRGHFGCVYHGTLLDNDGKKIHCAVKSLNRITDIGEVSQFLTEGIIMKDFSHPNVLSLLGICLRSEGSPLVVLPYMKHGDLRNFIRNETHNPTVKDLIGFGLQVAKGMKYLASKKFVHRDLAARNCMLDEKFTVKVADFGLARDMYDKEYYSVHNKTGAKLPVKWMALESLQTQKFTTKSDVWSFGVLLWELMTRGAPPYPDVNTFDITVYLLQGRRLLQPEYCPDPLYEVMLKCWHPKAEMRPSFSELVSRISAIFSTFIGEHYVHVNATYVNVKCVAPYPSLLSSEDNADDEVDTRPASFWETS

- Fold Change [6]: 53 fold
- EC50 [7]: 5.3 µM
B2: Affy7-Y6V CAR (other)
chain: GSEQKLISEEDLGSQVQLQQSGPELVRPGASVKMSCRASGYTFTSYWLHWVKQRPGQGLEWIGMIDPSNSDTRFNPNFKDKATLNVDRSSNTAYMLLSSLTSADSAVYYCATVGSYVSPLDYWGQGTSVTVSSGGGGSGGGGSGGGGSDIMMSQSPSSLTVSVGEKVTVSCKSSQSLLYTSSQKNYLAWYQQKPGQSPKLLIYWASTRESGVPDRFTGSGSGTDFTLTITSVKADDLAVYYCQQYYAYPWTFGGGTKLEIKRASTTTPAPRPPTPAPTIASQPLSLRPEACRPAAGGAVHTRGLDFACDFWVLVVVGGVLACYSLLVTVAFIIFWVRSKRSRLLHSDYMNMTPRRPGPTRKHYQPYAPPRDFAAYRSLRVKFSRSADAPAYQQGQNQLYNELNLGRREEYDVLDKRRGRDPEMGGKPRRKNPQEGLYNELQKDKMAEAYSEIGMKGERRRGKGHDGLYQGLSTATKDTYDALHMQALPPR
notes: CAR on transduced human T cells; Y to V in HC CDR3; P2A remnant not included; also called MycT-Affy7-Y6V CAR-SSTR2
- cytotoxicity, Normal Human Colon Cells, 8 hrs [1]: 9.4
- cytotoxicity, Normal Human Colon Cells, 16 hrs [1]: 13.5
- cytotoxicity, Normal Human Colon Cells, 24 hrs [1]: 14
- cytotoxicity, Normal Human Colon Cells, 32 hrs [1]: 18.2
- cytotoxicity, Normal Human Colon Cells, 40 hrs [1]: 20.3
- cytotoxicity, Normal Human Colon Cells, 48 hrs [1]: 22.2
- percent cytotoxicity, Hs746T, 24 hrs [2]: 65%
- percent cytotoxicity, Hs746T, 48 hrs [2]: 94.8%
- percent cytotoxicity, Hs746T, 72 hrs [2]: 98.2%
- percent cytotoxicity, H1993, 24 hrs [3]: 40%
- percent cytotoxicity, H1993, 48 hrs [3]: 84.2%
- percent cytotoxicity, H1993, 72 hrs [3]: 93.8%
- percent cytotoxicity, SNU638, 24 hrs [4]: 68.1%
- percent cytotoxicity, SNU638, 48 hrs [4]: 81.9%
- percent cytotoxicity, SNU638, 72 hrs [4]: 93.2%
- cytotoxicity, Normal Human Lung Cells, 8 hrs [5]: 18.2
- cytotoxicity, Normal Human Lung Cells, 16 hrs [5]: 18
- cytotoxicity, Normal Human Lung Cells, 24 hrs [5]: 15.4
- cytotoxicity, Normal Human Lung Cells, 32 hrs [5]: 17.9
- cytotoxicity, Normal Human Lung Cells, 40 hrs [5]: 16.7
- cytotoxicity, Normal Human Lung Cells, 48 hrs [5]: 21.5
- cytotoxicity, Normal Human Liver Cells, 8 hrs [8]: 6.5
- cytotoxicity, Normal Human Liver Cells, 16 hrs [8]: 3.9
- cytotoxicity, Normal Human Liver Cells, 24 hrs [8]: 5.5
- cytotoxicity, Normal Human Liver Cells, 32 hrs [8]: 8.7
- cytotoxicity, Normal Human Liver Cells, 40 hrs [8]: 10.7
- cytotoxicity, Normal Human Liver Cells, 48 hrs [8]: 10.8
- cytotoxicity, Normal Human Kidney Cells, 8 hrs [9]: 9.3
- cytotoxicity, Normal Human Kidney Cells, 16 hrs [9]: 9.7
- cytotoxicity, Normal Human Kidney Cells, 24 hrs [9]: 10.6
- cytotoxicity, Normal Human Kidney Cells, 32 hrs [9]: 10.3
- cytotoxicity, Normal Human Kidney Cells, 40 hrs [9]: 11
- cytotoxicity, Normal Human Kidney Cells, 48 hrs [9]: 14.8

- Fold Change [6]: 172 fold
- EC50 [7]: 17.2 µM
B3: Affy7-Y6M CAR (other)
chain: B2 chain with V113M
notes: CAR on transduced human T cells; Y to M in HC CDR3; P2A remnant not included; also called MycT-Affy7-Y6M CAR-SSTR2
- cytotoxicity, Normal Human Colon Cells, 8 hrs [1]: 1.4
- cytotoxicity, Normal Human Colon Cells, 16 hrs [1]: 1.7
- cytotoxicity, Normal Human Colon Cells, 24 hrs [1]: 1.4
- cytotoxicity, Normal Human Colon Cells, 32 hrs [1]: 7.1
- cytotoxicity, Normal Human Colon Cells, 40 hrs [1]: 1.8
- cytotoxicity, Normal Human Colon Cells, 48 hrs [1]: 3.6
- percent cytotoxicity, Hs746T, 24 hrs [2]: 47.6%
- percent cytotoxicity, Hs746T, 48 hrs [2]: 87%
- percent cytotoxicity, Hs746T, 72 hrs [2]: 96.4%
- percent cytotoxicity, H1993, 24 hrs [3]: 21.3%
- percent cytotoxicity, H1993, 48 hrs [3]: 70.5%
- percent cytotoxicity, H1993, 72 hrs [3]: 89.6%
- percent cytotoxicity, SNU638, 24 hrs [4]: 61.2%
- percent cytotoxicity, SNU638, 48 hrs [4]: 77.5%
- percent cytotoxicity, SNU638, 72 hrs [4]: 90.6%
- cytotoxicity, Normal Human Lung Cells, 8 hrs [5]: 9.9
- cytotoxicity, Normal Human Lung Cells, 16 hrs [5]: 9.7
- cytotoxicity, Normal Human Lung Cells, 24 hrs [5]: 6.3
- cytotoxicity, Normal Human Lung Cells, 32 hrs [5]: 6.9
- cytotoxicity, Normal Human Lung Cells, 40 hrs [5]: 9.5
- cytotoxicity, Normal Human Lung Cells, 48 hrs [5]: 13.8
- cytotoxicity, Normal Human Liver Cells, 8 hrs [8]: 7.2
- cytotoxicity, Normal Human Liver Cells, 16 hrs [8]: 6.2
- cytotoxicity, Normal Human Liver Cells, 24 hrs [8]: 9
- cytotoxicity, Normal Human Liver Cells, 32 hrs [8]: 10.9
- cytotoxicity, Normal Human Liver Cells, 40 hrs [8]: 11.3
- cytotoxicity, Normal Human Liver Cells, 48 hrs [8]: 10
- cytotoxicity, Normal Human Kidney Cells, 8 hrs [9]: 8.8
- cytotoxicity, Normal Human Kidney Cells, 16 hrs [9]: 10
- cytotoxicity, Normal Human Kidney Cells, 24 hrs [9]: 12
- cytotoxicity, Normal Human Kidney Cells, 32 hrs [9]: 13.3
- cytotoxicity, Normal Human Kidney Cells, 40 hrs [9]: 15.9
- cytotoxicity, Normal Human Kidney Cells, 48 hrs [9]: 19.7

Second part, the binder before the results:

B1: Affy7-Y6L CAR (other)
chain: B2 chain with V113L
notes: CAR on transduced human T cells; Y to L in HC CDR3; P2A remnant not included; also called MycT-Affy7-Y6L CAR-SSTR2
- cytotoxicity, Normal Human Colon Cells, 8 hrs [1]: 12.1
- cytotoxicity, Normal Human Colon Cells, 16 hrs [1]: 16.4
- cytotoxicity, Normal Human Colon Cells, 24 hrs [1]: 13.6
- cytotoxicity, Normal Human Colon Cells, 32 hrs [1]: 19
- cytotoxicity, Normal Human Colon Cells, 40 hrs [1]: 20
- cytotoxicity, Normal Human Colon Cells, 48 hrs [1]: 17.2
- percent cytotoxicity, Hs746T, 24 hrs [2]: 1.6%
- percent cytotoxicity, Hs746T, 48 hrs [2]: 42.9%
- percent cytotoxicity, Hs746T, 72 hrs [2]: 64.5%
- percent cytotoxicity, H1993, 24 hrs [3]: 12.8%
- percent cytotoxicity, H1993, 48 hrs [3]: 42.6%
- percent cytotoxicity, H1993, 72 hrs [3]: 71.2%
- percent cytotoxicity, SNU638, 24 hrs [4]: 66.9%
- percent cytotoxicity, SNU638, 48 hrs [4]: 84.5%
- percent cytotoxicity, SNU638, 72 hrs [4]: 93.5%
- cytotoxicity, Normal Human Lung Cells, 8 hrs [5]: 21.1
- cytotoxicity, Normal Human Lung Cells, 16 hrs [5]: 23.6
- cytotoxicity, Normal Human Lung Cells, 24 hrs [5]: 22.8
- cytotoxicity, Normal Human Lung Cells, 32 hrs [5]: 25.4
- cytotoxicity, Normal Human Lung Cells, 40 hrs [5]: 25.9
- cytotoxicity, Normal Human Lung Cells, 48 hrs [5]: 30.1
- Fold Change [6]: 6190 fold
- EC50 [7]: 619 µM
- cytotoxicity, Normal Human Liver Cells, 8 hrs [8]: 6.1
- cytotoxicity, Normal Human Liver Cells, 16 hrs [8]: 2.3
- cytotoxicity, Normal Human Liver Cells, 24 hrs [8]: 2.5
- cytotoxicity, Normal Human Liver Cells, 32 hrs [8]: 1.1
- cytotoxicity, Normal Human Liver Cells, 40 hrs [8]: 0
- cytotoxicity, Normal Human Liver Cells, 48 hrs [8]: 3.2
- cytotoxicity, Normal Human Kidney Cells, 8 hrs [9]: 11.7
- cytotoxicity, Normal Human Kidney Cells, 16 hrs [9]: 12.9
- cytotoxicity, Normal Human Kidney Cells, 24 hrs [9]: 14.8
- cytotoxicity, Normal Human Kidney Cells, 32 hrs [9]: 16.2
- cytotoxicity, Normal Human Kidney Cells, 40 hrs [9]: 17.1
- cytotoxicity, Normal Human Kidney Cells, 48 hrs [9]: 21.4

B4: Affy6-I3F CAR (other)
chain: GSEQKLISEEDLGSQVQLVQSGAEVKKPGASVKVSCKASGYIFTAYTMHWVRQAPGQGLEWMGWIKPNNGLANYAQKFQGRVTMTRDTSISTAYMELSRLRSDDTAVYYCARSEFTTEFDYWGQGTLVTVSSGGGGSGGGGSGGGGSDIVLTQSPDSLAVSLGERATINCKSSESVDSYANSFMHWYQQKPGQPPKLLIYRASTRESGVPDRFSGSGSRTDFTLTISSLQAEDVAVYYCQQSKEDPLTFGGGTKVEIKASTTTPAPRPPTPAPTIASQPLSLRPEACRPAAGGAVHTRGLDFACDFWVLVVVGGVLACYSLLVTVAFIIFWVRSKRSRLLHSDYMNMTPRRPGPTRKHYQPYAPPRDFAAYRSLRVKFSRSADAPAYQQGQNQLYNELNLGRREEYDVLDKRRGRDPEMGGKPRRKNPQEGLYNELQKDKMAEAYSEIGMKGERRRGKGHDGLYQGLSTATKDTYDALHMQALPPR
notes: CAR on transduced human T cells; I to F in HC CDR3; P2A remnant not included; also called MycT-Affy6-I3F CAR-SSTR2
- cytotoxicity, Normal Human Colon Cells, 8 hrs [10]: 13.2
- cytotoxicity, Normal Human Colon Cells, 16 hrs [10]: 19.2
- cytotoxicity, Normal Human Colon Cells, 24 hrs [10]: 22.4
- cytotoxicity, Normal Human Colon Cells, 32 hrs [10]: 13.3
- cytotoxicity, Normal Human Colon Cells, 40 hrs [10]: 1.6
- cytotoxicity, Normal Human Colon Cells, 48 hrs [10]: 8.3
- cytotoxicity, Normal Human Liver Cells, 8 hrs [11]: 15.3
- cytotoxicity, Normal Human Liver Cells, 16 hrs [11]: 24.7
- cytotoxicity, Normal Human Liver Cells, 24 hrs [11]: 31.8
- cytotoxicity, Normal Human Liver Cells, 32 hrs [11]: 34.8
- cytotoxicity, Normal Human Liver Cells, 40 hrs [11]: 34.8
- cytotoxicity, Normal Human Liver Cells, 48 hrs [11]: 31.8
- Fold Change [12]: 937 fold
- percent cytotoxicity, H1993, 24 hrs [13]: 64.7%
- percent cytotoxicity, H1993, 48 hrs [13]: 91.3%
- percent cytotoxicity, H1993, 72 hrs [13]: 97%
- EC50 [7]: 20.5 µM
- cytotoxicity, Normal Human Lung Cells, 8 hrs [14]: 17.1
- cytotoxicity, Normal Human Lung Cells, 16 hrs [14]: 16.4
- cytotoxicity, Normal Human Lung Cells, 24 hrs [14]: 19.1
- cytotoxicity, Normal Human Lung Cells, 32 hrs [14]: 18
- cytotoxicity, Normal Human Lung Cells, 40 hrs [14]: 29.4
- cytotoxicity, Normal Human Lung Cells, 48 hrs [14]: 34.8
- cytotoxicity, Normal Human Kidney Cells, 8 hrs [15]: 19.2
- cytotoxicity, Normal Human Kidney Cells, 16 hrs [15]: 28
- cytotoxicity, Normal Human Kidney Cells, 24 hrs [15]: 30.4
- cytotoxicity, Normal Human Kidney Cells, 32 hrs [15]: 27.8
- cytotoxicity, Normal Human Kidney Cells, 40 hrs [15]: 18.8
- cytotoxicity, Normal Human Kidney Cells, 48 hrs [15]: 16.5

Reference: patent US20250276018A1 (AFFYIMMUNE THERAPEUTICS, published 2025)
